This is an account of results in patent US20030224453A1, “Structural models for cytoplasmic domains of transmembrane receptors” (priority 1998, published 2003).

In experiment [1] the target is T1, filamin (ABP-280) (Homo sapiens, UniProt P21333). The experiment can be described thus: densitometry of Coomassie-stained gels; purified filamin on model protein resin.
For experiment [2], the target named is T1, filamin (ABP-280). The experiment is described as follows: Binding of resin-bound cytoplasmic domain model proteins to purified filamin. Also on record: Human uterus filamin (ABP-280) was prepared as a 1.5 mg/ml solution; from tissue; host or cells: human uterus. The note with it: result in words. As for the experimental part: (§1) Purified recombinant cytoplasmic domain proteins (500 μg) were dissolved in a mixture of 5 ml 20 mM Pipes, 50 mM NaCl, pH 6.8 and 1 ml 0.1 M sodium acetate, pH 3.5 and bound overnight to 80 μl of Ni^2+ saturated His-bind resin (Novagen). […] Resins were washed twice with 20 mM Pipes, 50 mM NaCl, pH 6.8, and stored at 4° C. with 0.1% sodium azide as suspensions with one volume of this buffer. Fifty microliters of such a suspension were added to 4.5 ml of cell lysates which had been diluted tenfold with buffer A containing 0.05% TRITON X-100, 3 mM MgCl2 and protease-inhibitors. After incubation overnight at 4° C., resins were washed five times with this buffer and finally heated in 50 μl of reducing sample buffer for SDS PAGE. Samples were separated on 4-20% SDS polyacrylamide gels (NOVEX) and either stained with Coomassie or transferred to Immobilon P membranes (Amersham Corp., Arlington Hts, Ill.). Membranes were blocked with TBS, 5% nonfat-mild powder and stained with streptavidin-peroxidase (VECTASTAIN) or specific antibodies. Bound peroxidase was detected with an enhanced chemiluminescence kit (Amersham).
Human uterus filamin (ABP-280) was prepared as a 1.5 mg/ml solution in 0.6 M KCl, 0.5 mM ATP, 0.5 mM DTT, 10 mM imidazole, pH 7.5. For binding assays performed as described in Example 5, this solution was diluted 1/12 with buffer A, 0.05% TRITON X-100, 3 mM MgCl2, 2 mg/ml BSA, protease-inhibitors (see Example 5), omitting the 50 mM NaCl (see Example 5), and resins with bound model proteins were added. Washing was performed in this buffer without BSA and with additional 50 mM KCl.
Talin was purified from human platelets in accordance with well known procedures with an additional purification step using chromatography on phosphocellulose and stored at 1 mg/ml in 10 mM NaCl, 50% glycerol. This solution was diluted to either 87 or 17 μg/ml talin with buffer A, 0.05% TRITON X-100, 3 mM MgCl2, 2 mg/ml BSA and protease inhibitors (see Example 5, including 0.1 mM E-64) and processed as indicated in the binding assays with cell lysates. […]
Target sequence in this assay (P21333 whole entry, the tested form may be a part): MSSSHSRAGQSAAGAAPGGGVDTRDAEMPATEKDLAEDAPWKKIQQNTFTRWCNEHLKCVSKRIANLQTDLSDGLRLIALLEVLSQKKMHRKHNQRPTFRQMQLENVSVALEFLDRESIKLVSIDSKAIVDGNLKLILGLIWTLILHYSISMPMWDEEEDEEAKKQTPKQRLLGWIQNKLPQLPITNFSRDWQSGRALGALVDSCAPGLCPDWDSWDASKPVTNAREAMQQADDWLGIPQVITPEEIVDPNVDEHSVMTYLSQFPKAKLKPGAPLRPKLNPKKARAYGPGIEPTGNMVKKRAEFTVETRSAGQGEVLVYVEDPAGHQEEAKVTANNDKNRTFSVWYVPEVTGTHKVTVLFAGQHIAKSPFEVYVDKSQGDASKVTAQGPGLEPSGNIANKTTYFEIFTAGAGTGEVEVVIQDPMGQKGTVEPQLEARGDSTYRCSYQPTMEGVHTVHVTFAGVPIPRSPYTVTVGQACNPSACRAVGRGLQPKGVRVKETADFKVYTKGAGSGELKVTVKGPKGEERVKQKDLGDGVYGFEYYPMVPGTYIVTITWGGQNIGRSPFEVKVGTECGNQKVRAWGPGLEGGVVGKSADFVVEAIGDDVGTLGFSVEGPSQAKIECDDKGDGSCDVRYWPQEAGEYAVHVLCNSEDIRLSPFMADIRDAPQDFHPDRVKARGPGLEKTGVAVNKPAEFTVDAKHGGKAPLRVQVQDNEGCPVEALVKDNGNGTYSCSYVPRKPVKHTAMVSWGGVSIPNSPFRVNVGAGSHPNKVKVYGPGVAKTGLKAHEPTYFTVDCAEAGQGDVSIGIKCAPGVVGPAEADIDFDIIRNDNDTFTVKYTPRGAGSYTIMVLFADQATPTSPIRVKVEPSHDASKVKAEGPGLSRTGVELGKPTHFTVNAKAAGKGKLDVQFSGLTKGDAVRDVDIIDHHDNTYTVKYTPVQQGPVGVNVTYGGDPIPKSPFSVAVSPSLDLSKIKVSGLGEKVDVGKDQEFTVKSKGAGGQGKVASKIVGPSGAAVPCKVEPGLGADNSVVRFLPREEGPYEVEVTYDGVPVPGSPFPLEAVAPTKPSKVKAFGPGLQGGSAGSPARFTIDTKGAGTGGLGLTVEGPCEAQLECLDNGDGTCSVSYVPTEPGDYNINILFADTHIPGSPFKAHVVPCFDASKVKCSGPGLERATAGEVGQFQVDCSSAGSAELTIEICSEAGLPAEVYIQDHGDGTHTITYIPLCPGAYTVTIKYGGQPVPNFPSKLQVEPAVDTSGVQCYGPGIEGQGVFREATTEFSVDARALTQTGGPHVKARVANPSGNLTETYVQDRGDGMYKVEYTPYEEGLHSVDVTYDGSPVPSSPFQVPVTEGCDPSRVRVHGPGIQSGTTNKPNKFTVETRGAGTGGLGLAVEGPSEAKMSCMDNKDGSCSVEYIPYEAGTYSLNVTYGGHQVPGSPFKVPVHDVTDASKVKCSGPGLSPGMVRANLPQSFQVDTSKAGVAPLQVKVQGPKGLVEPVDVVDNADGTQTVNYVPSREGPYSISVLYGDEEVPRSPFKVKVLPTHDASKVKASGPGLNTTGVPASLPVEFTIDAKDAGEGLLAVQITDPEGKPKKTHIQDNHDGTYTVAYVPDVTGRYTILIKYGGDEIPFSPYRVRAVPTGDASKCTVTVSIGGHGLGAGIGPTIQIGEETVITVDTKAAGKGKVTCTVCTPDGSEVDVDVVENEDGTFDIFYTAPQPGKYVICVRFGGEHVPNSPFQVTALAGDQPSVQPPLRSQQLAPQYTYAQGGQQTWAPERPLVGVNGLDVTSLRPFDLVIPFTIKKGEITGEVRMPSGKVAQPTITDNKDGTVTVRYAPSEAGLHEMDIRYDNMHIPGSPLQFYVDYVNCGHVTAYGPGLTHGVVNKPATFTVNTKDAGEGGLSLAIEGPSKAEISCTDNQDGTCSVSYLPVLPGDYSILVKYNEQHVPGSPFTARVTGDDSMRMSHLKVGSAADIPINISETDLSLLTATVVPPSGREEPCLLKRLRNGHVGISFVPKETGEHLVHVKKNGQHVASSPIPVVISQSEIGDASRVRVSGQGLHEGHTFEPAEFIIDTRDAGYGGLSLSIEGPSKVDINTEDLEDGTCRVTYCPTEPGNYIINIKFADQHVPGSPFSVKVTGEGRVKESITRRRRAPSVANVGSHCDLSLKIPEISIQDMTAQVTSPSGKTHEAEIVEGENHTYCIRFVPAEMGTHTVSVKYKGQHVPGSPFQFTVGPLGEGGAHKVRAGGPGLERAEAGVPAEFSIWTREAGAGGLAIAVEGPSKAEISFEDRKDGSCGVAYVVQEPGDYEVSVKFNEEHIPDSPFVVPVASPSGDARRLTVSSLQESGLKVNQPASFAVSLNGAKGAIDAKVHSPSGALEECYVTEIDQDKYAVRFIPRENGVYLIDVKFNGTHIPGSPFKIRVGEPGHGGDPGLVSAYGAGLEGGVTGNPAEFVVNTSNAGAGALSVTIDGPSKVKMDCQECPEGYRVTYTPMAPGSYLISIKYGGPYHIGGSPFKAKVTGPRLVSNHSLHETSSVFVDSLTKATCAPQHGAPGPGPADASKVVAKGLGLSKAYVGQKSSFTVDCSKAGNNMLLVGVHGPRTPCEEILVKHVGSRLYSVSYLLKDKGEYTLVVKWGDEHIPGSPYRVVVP

The subject of the next experiment is filamin. The experiment is described as follows: Affinity chromatography of cell lysates on cytoplasmic domain mimics, filamin (240 kDa) detected. The class given is binding. The note with it: NHS-biotin-labeled human platelet lysates; result in words. From the text:
To study possible influences of the structural changes induced by the Gly insertions, protein models were produced having the β1A cytoplasmic domain with one, two and three additional Gly residues inserted after the heptad-repeat motif (G2-, G3-, G4-β1A) and compared with the G1-β1A construct. As an additional control, a variant of the G4-β1A peptide was produced with a Tyr to Ala substitution in the membrane-proximal NPXY-motif (G4-β1A-Y788A) (FIG. 1). This mutation interferes with focal adhesion targeting and activation of integrins. The purified proteins were bound via their N=terminal His-Tag to a Ni^2+−resin and used in affinity chromatography experiments with lysates of NHS-biotin-labeled human platelets. Marked changes in the pattern of protein binding were observed as a consequence of the Gly insertions. Polypeptides migrating at 45, 56, 58, 140 and 240 kDa bound only to the mimics with Gly insertions. […] Using monoclonal antibodies, the 240 kDa and 45 kDa proteins were identified as filamin and actin, respectively. […] Talin bound to the G1- and G4-β1A construct but not to the Y788A-G4β1A construct. Thus, the structural changes in the model induced by the insertion of glycines into the coiled-coil motif and the integrin cytoplasmic domain sequence alter interactions of these proteins with cellular components. […]

For experiment [3], the target named is T2, talin (Homo sapiens, UniProt Q9Y490). The experiment is described as follows: Affinity chromatography of cell lysates on cytoplasmic domain mimics, talin detected. It is filed as binding. Also on record: endogenous in cells; host or cells: human platelets (also Jurkat, HT1080, mouse C2C12 myotubes). The note with it: NHS-biotin-labeled human platelet lysates; result in words. From the text: To study possible influences of the structural changes induced by the Gly insertions, protein models were produced having the β1A cytoplasmic domain with one, two and three additional Gly residues inserted after the heptad-repeat motif (G2-, G3-, G4-β1A) and compared with the G1-β1A construct. As an additional control, a variant of the G4-β1A peptide was produced with a Tyr to Ala substitution in the membrane-proximal NPXY-motif (G4-β1A-Y788A) (FIG. 1). This mutation interferes with focal adhesion targeting and activation of integrins. The purified proteins were bound via their N=terminal His-Tag to a Ni^2+−resin and used in affinity chromatography experiments with lysates of NHS-biotin-labeled human platelets. Marked changes in the pattern of protein binding were observed as a consequence of the Gly insertions. Polypeptides migrating at 45, 56, 58, 140 and 240 kDa bound only to the mimics with Gly insertions. […] Using monoclonal antibodies, the 240 kDa and 45 kDa proteins were identified as filamin and actin, respectively. […] Talin bound to the G1- and G4-β1A construct but not to the Y788A-G4β1A construct. Thus, the structural changes in the model induced by the insertion of glycines into the coiled-coil motif and the integrin cytoplasmic domain sequence alter interactions of these proteins with cellular components. Alterations of the β1A tail that block cytoskeletal interactions, such as the Y788 mutation and β1B- and β1C-splice variants also abrogate binding to talin and filamin. Consequently, the observed in vitro interactions are likely to be biologically relevant.
T2 sequence (Q9Y490 whole entry, the tested form may be a part): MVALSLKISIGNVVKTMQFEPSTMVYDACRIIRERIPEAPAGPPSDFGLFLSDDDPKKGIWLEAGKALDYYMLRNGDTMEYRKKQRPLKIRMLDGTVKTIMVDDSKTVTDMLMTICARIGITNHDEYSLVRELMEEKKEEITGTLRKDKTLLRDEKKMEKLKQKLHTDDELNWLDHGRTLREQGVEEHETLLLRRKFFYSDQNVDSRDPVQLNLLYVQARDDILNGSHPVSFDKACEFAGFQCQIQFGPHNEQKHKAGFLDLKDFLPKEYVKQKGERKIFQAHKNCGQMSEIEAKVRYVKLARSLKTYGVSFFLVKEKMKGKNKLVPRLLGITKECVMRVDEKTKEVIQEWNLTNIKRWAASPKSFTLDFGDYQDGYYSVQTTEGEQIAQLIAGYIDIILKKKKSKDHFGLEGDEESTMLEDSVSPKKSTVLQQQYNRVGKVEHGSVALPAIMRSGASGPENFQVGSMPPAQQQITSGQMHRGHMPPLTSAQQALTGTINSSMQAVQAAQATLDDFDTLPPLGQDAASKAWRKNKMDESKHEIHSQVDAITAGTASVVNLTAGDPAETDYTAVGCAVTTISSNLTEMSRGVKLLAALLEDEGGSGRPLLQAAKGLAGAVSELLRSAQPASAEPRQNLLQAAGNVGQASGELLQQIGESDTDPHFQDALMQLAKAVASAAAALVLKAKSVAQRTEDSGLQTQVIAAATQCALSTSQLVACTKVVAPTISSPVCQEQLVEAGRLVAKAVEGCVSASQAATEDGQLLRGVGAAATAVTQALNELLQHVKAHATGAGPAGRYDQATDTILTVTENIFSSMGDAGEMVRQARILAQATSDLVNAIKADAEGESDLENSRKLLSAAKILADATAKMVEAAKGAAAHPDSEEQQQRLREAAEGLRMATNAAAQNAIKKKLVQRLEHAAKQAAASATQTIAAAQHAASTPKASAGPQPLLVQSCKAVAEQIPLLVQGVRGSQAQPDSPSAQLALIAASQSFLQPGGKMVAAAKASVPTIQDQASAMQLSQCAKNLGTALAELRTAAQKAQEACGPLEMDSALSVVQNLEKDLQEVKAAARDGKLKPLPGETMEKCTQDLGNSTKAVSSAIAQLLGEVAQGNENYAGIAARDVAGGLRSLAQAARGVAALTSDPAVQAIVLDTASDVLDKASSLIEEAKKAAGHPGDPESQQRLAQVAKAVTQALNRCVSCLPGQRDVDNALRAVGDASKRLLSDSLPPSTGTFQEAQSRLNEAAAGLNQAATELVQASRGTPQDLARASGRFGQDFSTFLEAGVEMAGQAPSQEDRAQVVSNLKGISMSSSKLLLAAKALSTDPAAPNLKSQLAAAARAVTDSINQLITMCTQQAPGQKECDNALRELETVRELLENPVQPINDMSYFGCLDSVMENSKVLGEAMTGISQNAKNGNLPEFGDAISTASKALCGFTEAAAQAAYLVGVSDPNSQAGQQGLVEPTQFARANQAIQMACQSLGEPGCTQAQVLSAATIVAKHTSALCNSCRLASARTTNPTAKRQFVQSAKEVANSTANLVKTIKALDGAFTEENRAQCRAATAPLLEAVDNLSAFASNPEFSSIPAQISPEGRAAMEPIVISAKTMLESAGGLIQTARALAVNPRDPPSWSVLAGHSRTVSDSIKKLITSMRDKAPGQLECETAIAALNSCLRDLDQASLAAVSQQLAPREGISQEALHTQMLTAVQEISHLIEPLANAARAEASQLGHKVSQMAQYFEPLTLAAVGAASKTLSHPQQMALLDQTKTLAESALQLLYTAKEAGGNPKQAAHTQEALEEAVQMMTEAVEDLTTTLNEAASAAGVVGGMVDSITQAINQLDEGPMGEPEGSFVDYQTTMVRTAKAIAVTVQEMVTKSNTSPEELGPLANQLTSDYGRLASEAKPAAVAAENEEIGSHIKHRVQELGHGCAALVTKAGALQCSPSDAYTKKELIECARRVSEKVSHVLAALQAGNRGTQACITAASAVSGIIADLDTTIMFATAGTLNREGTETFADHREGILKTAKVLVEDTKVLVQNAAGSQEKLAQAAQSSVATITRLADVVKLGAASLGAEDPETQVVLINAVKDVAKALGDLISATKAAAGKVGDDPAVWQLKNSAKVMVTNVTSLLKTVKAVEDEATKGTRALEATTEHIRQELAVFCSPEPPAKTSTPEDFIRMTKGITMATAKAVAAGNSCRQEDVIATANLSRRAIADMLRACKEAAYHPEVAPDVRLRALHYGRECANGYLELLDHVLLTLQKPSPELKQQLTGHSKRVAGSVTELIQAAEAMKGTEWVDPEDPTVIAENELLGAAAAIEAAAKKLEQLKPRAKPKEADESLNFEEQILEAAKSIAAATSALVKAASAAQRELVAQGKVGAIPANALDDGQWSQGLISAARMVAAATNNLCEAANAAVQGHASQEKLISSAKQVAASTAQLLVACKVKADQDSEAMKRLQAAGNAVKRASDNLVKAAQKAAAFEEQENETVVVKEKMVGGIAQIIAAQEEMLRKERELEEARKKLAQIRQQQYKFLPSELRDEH
Human platelets were obtained by centrifugation of freshly drawn blood samples at 1000 rpm for 20 minutes and sedimentation of the resulting platelet-rich plasma at 2600 rpm for 15 minutes. They were washed twice with 0.12 M NaCl, 0.0129 M trisodium citrate, 0.03 M glucose, pH 6.5, and once in Hepes-Saline (3.8 mM Hepes, 137 mM NaCl, 2.7 mM KCl, 5.6 mM D-Glucose, 3.3 mM Na2HPO4, pH 7.3-7.4). […]

Experiment [4] addresses T2, talin. The experiment is described as follows: Binding of resin-bound cytoplasmic domain model proteins to purified talin. The note with it: result in words. Also on record: Talin was purified from human platelets in accordance with well known procedures; from tissue; host or cells: human platelets. The procedure:
as §1
Talin was purified from human platelets in accordance with well known procedures with an additional purification step using chromatography on phosphocellulose and stored at 1 mg/ml in 10 mM NaCl, 50% glycerol. […]

In experiment [5] the target is T2, talin. The experiment is described as follows: densitometry of Coomassie-stained gels; purified talin on model protein resin.

B1: β7 construct (G1 or G4 variant not stated) (designed binder, part only; not given: number of added glycines, part only)
chain, part: GSSHHHHHHSSGLVPRGSHMKLEALEGRLDALEGKLEALEGKLDALEGKLSVEIYDRREYSRFEKEQQQLNWKQDSNPLYKSAITTTINPRFQEADSPTL
With B1, the fold more filamin bound than by the β1A model protein with filamin (ABP-280) [1] is 8.4 fold. The “binding of purified filamin, comparison between constructs” value (“binding of purified filamin” below) with filamin (ABP-280) [2] is listed as “bound more filamin than G4-β1A or G4-β1D”.

B2: G4-β1A-Y788A: G4-β1A variant with Tyr to Ala substitution in the membrane-proximal NPXY-motif (protein)
chain: GSSHHHHHHSSGLVPRGSHMKLEALEGRLDALEGKLEALEGKLDALEGGGGKLLMIIHDRREFAKFEKEKMNAKWDTGENPIAKSAVTTVVNPKYEGK
In the case of B2, the “filamin (240 kDa) binding from cell lysates” value with filamin is “suppressed the interaction with the 240 kDa”. Moreover, the “talin binding from cell lysates” value with talin [3] is recorded as “not”. Moreover, in the experiment with filamin (ABP-280) [2], the “binding of purified filamin” value is “functionally reduced”. Moreover, the “binding of purified talin compared to G4-β1A” value in the experiment with talin [4] is “functionally reduced”.

B3: G4-β1B: G4 model protein with β1B splice variant cytoplasmic domain (protein)
chain: GSSHHHHHHSSGLVPRGSHMKLEALEGRLDALEGKLEALEGKLDALEGGGGKLLMIIHDRREFAKFEKEKMNAKWDTVSYKTSKKQSGL
As to B3, the “binding of purified filamin” value with filamin (ABP-280) [2] is listed as “functionally reduced”. The “binding of purified talin compared to G4-β1A” value with talin [4] is recorded as “functionally reduced”.

B4: β1D construct (G1 or G4 variant not stated) (designed binder, part only; not given: number of added glycines, part only)
chain, part: GSSHHHHHHSSGLVPRGSHMKLEALEGRLDALEGKLEALEGKLDALEGKLLMIIHDRREFAKFEKEKMNAKWDTQENPIYKSPINNFKNPNYGRKAGL
B4 gave a fold more talin bound than by the β1A model protein in the experiment with talin [5] of 9 fold.
